# Experimental data reported in article PMC2760979 (Cancer research, 2009).
# Target: GST-p65(1-306) (UniProt Q04206 1-306)
# Assay: pull-down
# GST-p65(1-306), sequence (Q04206 1-306): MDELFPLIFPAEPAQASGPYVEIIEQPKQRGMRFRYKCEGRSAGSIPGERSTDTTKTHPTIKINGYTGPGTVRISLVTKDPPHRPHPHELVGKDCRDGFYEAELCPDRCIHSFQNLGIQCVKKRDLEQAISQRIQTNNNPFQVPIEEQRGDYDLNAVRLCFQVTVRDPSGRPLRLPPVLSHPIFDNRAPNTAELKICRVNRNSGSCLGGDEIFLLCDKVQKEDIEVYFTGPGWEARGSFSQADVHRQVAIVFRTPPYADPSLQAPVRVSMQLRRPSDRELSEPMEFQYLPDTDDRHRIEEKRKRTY
binder,measurement,value
GGSSLSY [GGSSLSY peptide],binding result,binds
